In paper PMC2112703:

Target: rabbit skeletal muscle actin (rabbit), P68135
Test: cross-linking
Conditions: remark: other sources report otherwise

B1: depactin (actin-depolymerizing protein from starfish oocytes), P20690 1-150 (natural protein)
chain: PQSGTALDENVKEEIRAFKMDQSKVKVPWMLLEIVQNDDRIDVVKVTKKAGPSDNLETLREELKQREVVYFVLDYEPSEEKRAKHNIPKGKTYPLTCFWSMETANIKLKMKYSSTVGTLKSATSTLKTYLEAHDFDDLSEEAIGDKIKNF
stoichiometry N: 1
